According to the DeepSol protein solubility set:

experiment: soluble on expression in E. coli; label from the status in PepcDB or PDB records

Sequence	soluble on expression in E. coli
MSLEEQREILEQLKKTLQMLTVEPSKNNQIANEEKEKKENENSWCILEHNYEDIAQEFIDFIYKNPTTYHVVSFFAELLDKHNFKYLSEKSNWQDSIGEDGGKFYTIRNGTNLSAFILGKNWRAEKGVGVIGSHVDALTVKLKPVSFKDTAEGYGRIAVAPYGGTLNELWLDRDLGIGGRLLYKKKGTNEIKSALVDSTPLPVCRIPSLAPHFGKPAEGPFDKEDQTIPVIGFPSPDEEGNEPPTDDEKKSPLFGKHCIHLLRYVAKLAGVEVSELIQMDLDLFDVQKGTIGGIGKHFLFAPRLDDRLCSFAAMIALICYAKDVDTEESELFSTVTLYDNEEIGSLTRQGAKGGLLESVVERSSSAFTKKAVDLHTVWANSIILSADVNHLYNPNFPEVYLKNHFPVPNVGITLSLDPNGHMATDVVGTALVEELARRNGDKVQYFQIKNNSRSGGTIGPSLASQTGARTIDLGIAQLSMHSIRAATGSKDVGLGVKFFNGFFKHWRSVYDEFGELEGHHHHHH	soluble
MSSRKRGITPSRDQVRRKKLSIEETDSIEVVCRLCPYTGSTPSLIAIDEGSIQTVLPPAQFRRENAPQVEKVFRFGRVFSENDGQATVFERTSVDLILNLLKGQNSLLFTYGVTGSGKTYTMTGKPTETGTGLLPRTLDVIFNSINNRVEKCIFYPSALNTFEIRATLDAHLKRHQMAADRLSTSREITDRYCEAIKLSGYNDDMVCSVFVTYVEIYNNYCYDLLEDARNGVLTKREIRHDRQQQMYVDGAKDVEVSSSEEALEVFCLGEERRRVSSTLLNKDSSRSHSVFTIKLVMAPRAYETKSVYPTMDSSQIIVSQLCLVDLAGSERAKRTQNVGERLAEANSINQSLMTLRQCIEVLRRNQKSSSQNLEQVPYRQSKLTHLFKNYLEGNGKIRMVICVNPKPDDYDENMSALAFAEESQTIEVKKQVERMPSERIPHSFFTQWNSELDGSVRMEDDGSREIPCPPTFCLTDCNDKDTVDSMYKYARKLSSLQNSSEEGPSSTLLTMIRQYMMEADYQRVEIARLKDSLNDKDEEIKKLRGFCSRYKRENASMKERIASCEQGEQENALVMEKLMEQKMEDRKIIQSQKKAMRNVRGIIDNPSPSVASLRSRFDQENVAHPTAPIQTPPPPYQTPGRAPVFKKRLEATTSTTVMSGSSSGGSGQQGYVNPKYQRRSKSASRLLDHQPLHRVPTGTVLQSRTPANAIRTTKPEMHQLNKSGEYRLTHQEVDDEGNISTNIVKGNVIPTVSGGTAVFFNDIERLTHESPSTRK	not soluble
MSDSASGYEYVYYDRQVGAVQKSPNLMNDPKGALFYTLDSVFGDPGDTTGWILYNDEMPADANRSNNATLGHTKGVIAFDIASSSALWLLHSWPKYASPSVPGVPTPLYGQTFLCLSLDLATAGKLAAQMALHQQPQVYLPRTGGLDHTSPLYALTQPLNASAPGDSDSLDFKTRGGVPFKVIAKNRKWGKDFWNDLVGPTLKADMYVETWIRGKIPPVLDSDGVHKTYDIKFIDLRKLGAPWAWPETQDHAKWGITTTDNWVCVGDINRMVTQEKRGGGTIAFQDPKLWKALCETDLIIPPPGKTDAQARAMIRKTHEPAELEHHHHHH	not soluble
MGSSHHHHHHGKTIFVIVPTNEEQVAFLEALAKQDELNFDWQNPPTEPGQPVVILIPSDMVEWFLEMLKAKGIPFTVYVEEGGSENLYFQGGGGGGAQCVRRLVLAATLAAAVALLLCTSSAPVARAAGTGDFTAAQRTNTLAVLQAFGRAIPKLGEKWAGNDFCSWEAVLCNAPDVYVSGISPTYAGTLPEMPVNVDYRHVVIKQLDFSEMGPGLSGTLPASWHSMTSLESLSIEKCESISGSVPPEWGSMTSLSVLNLRGTGISGTLPPQWSGMSKARSLQLQDCDLSGSLPSSWSAIPMLASVSLKGNKFCGVCRTRGIRRLVLLWTSRTSTRAATAWLLRTAQRPPLSPPPRQRPPRTSLTFPLRRGPRLSRLPQPALRHRLNPQPPLRHRLNPRPLLPQQTRRLLHQRRSARWMGVRCARGTPLRGARGAVRTTS	not soluble
MCDTLILRHQGQTWFAKNSDREPAEPQRLLRLPAVRNDPEARLRTTYLDIPQTAQRHALVISQPSWIWGAEMGVNEHGVAIGNEAVFTKLTRQRGTALLGMDLLRLGLERGASAREALEVITGLLQRYGQGGPAGYRDKRIRYDNSFLIADPGEAWVLETAGNLWAAKKVERWAISNALTLGHEFDLCSRDLEDQARRQGCWDGRGDFHFARVFDTRLLPWVGGAHRRCRINQRFLDSLPGEPDWHALFAALRHHGPRGDHFRRHNNRQVCMHAGSFWRPSQTTASLVARLRDDGPLLAATGTSAPCLGLFQPLSFDPASGAAVLSQPREAVQESPWWRFEAVHRRALTDRAFRRLLRSGRDWLERELFADLEQPDWPRLAEDAAAWHACWHDQVAMQPLAQQRWWRSHAALAAALEHHHHHH	not soluble
MGSDKIHHHHHHMNRDTERTTMEGEHLYSPKNDDAPPAPAPDSPASLLDELIEAARVKRDEEAYPITRHGIEAFVAHLARPKRPIETVSQATIDDMIAEIDRKLCRQVDAILHHPDFQQLESTWRSLKFLVERTDFRENIKIQFLDVGKAALLDDFDDSPDITKSGLYQKVYAAEYGQFGGQPIGAIVANYTFGPGAQDVKLLQYVASTSAMAHTPFIAAAGPAFFGIDSFGKLPNVKDLASLFEGPQFAKWNAFRESEDARYVGLTLPRFLLRLPYGANTTPVKRFNYDERVDGGDADFLWGNAAFAFATRLTASFADYRWCANVIGPKGGGTVADLPLYAYEAMGEIQNKIPTDVLISERREFELAEQGFIALTMRKHSDNAAFFSANSTQKPKFFGISKEGKDAELNYRLGTQLPYIFVVNRLAHYIKVIQRENIGTWKERGDLEQELNQWIRQYVADMDNPTEGVRSRRPLRQAEIFVSDVEGEPGWYRVDMKVRPHFKYMGASFTLSLVGKLEKR	not soluble
MAQSEISKREKGRALITVANNVAGFNLWKRLVEEGYDVDAILPSEDKYNLLLSELVSRKNKKYDFIVNTVDRHDYAVVTNKMLKWLYPTEKIIFISSDLVYEPRPGKKKENDNAYPPTMEGKYFLEAESALDVNSDLVLRVGLVTGRCVPNILTNTINLSRANMSIDLSGAVVRNFISNADLSEYIIRLLDKNGIYNASAKSMTPRDFALELCAKINVNCKLRRTTDDKVFDYSMDTTKIELTTGYYTKDIFANISSGLYLLG	soluble
MPRGLILATPQLPPDGTPFSARYDDVYHSTEGGLAQAHHVFLGGNGLPGGWQGKRSFTIVETGFGQGLNFLATWAAWRDDPQRCGRLDFVSVEKHPFDRAGLALVHAQEGALASLAEALRQAWPVPVPGVHRLVFDAGRVTLTLMLGDAETLLPQLSCAADAFYLDGFSPAKNPDLWQPGVFKQLARIARGGATLATYTAAGAVRHGLREAGFEVRKAPGFGRKRDMTVAAFPTHWRTRRGPAEAPVWPERHAIVLGAGLAGCSVAERLAARGWRITLIDEHEAPAGGASAHRAAAMHPHVSIDDSVLSRLSRAGNLLARRHWEALDRAGFATGFHPTGVLQLAEHADDAAEQQRIVQALGFPADFIAWLDAARAADRVGAGVPQGGWWFAQAGWVAPPDICRAALAAAGEAVELRWRTRIESLLRHDAGWRACDAQGNVIAHAPVVVLANSLDAVRLAPLASAALKPVRGQLTDVPVAALEDGVPWPRAVVCGDGYLLPRERGAPTVRVGSSFQPGETDPDARTADHAANLRRLAGLQPAHAAALARVDPARLLGYVGVRCVSANRLPLIGAVADEAAIMAPGFRLRGPHAALPRVPGLYAALAYGSRGLTWSVLGAELLAAQIDGGPLPLESELAAALDPGRFLMRALRHGKHAA	soluble
MESSDIASRIWLIAGPTASGKSAYALDLAERIDGEIVNADSMQIYAGLRVLTAGPSQEETARAPHHLFQIVDPALGWSVGRWLEAATQALAEIQARGKPAIVVGGTGLYFRALTHGLADVPPVPETQREISSLLYAARGETEFREILKPLDPEAEARIESGDRQRLVRAHAVAITTGKSLTAWQTDTKPALAPGSWKGLVLDPPRAELYARCDARLAVMVEQGALDEVRALETRGLDPALPALKAVGYREFAAHLRGETSLDQALDAARQETRRYAKRQLTWFRNQTPDWERIVPLEHHHHHH	not soluble
MLFFLIFLGLMATASAKAGRCNEGDQDAHFDSNKFWKCEGGRWIVVTCQINYFYDATTGFCYLSRFPTTRPYPPPFPTRPRPTQGHRCYPGTRIPYPHDHTMFLECSTDGTEYIKRYCQPDAVFVQRENMCVAIQTTYRPTRTWPTTTTTPYYGACKESAGHDGYKPDVYNCKNFYQCASGLWTQRSCGEGTIWDQHKLTCDHNRGQCRPTSPTVQPTYQPTWRPTAYPPNEVKK	soluble
MSLEEVIEQLREANEPVPVPLELPDEDQLVEIEEQLFINIPFVFKEFLLTVSDVVYGSLEPVTVTDPQSHTYLPEVCATAWDLGVPRELIPICQDGEDYYCVEEDGTVLLWSAEEELVTEESWESVWHWARDVWLESEGHHHHHH	soluble
MGSSHHHHHHSSGLVPRGSHMLKFDVNTSAVQVLIEHIGNLDRAYEFAERCNEPAVWSQLAKAQLQKGMVKEAIDSYIKADDPSSYMEVVQAANTSGNWEELVKYLQMARKKARESYVETELIFALAKTNRLAELEEFINGPNNAHIQQVGDRCYDEKMYDAAKLLYNNVSNFGRLASTLVHLGEYQAAVDGARKANSTRTWKEVCFACVDGKEFRLAQMCGLHIVVHADELEELINYYQDRGYFEELITMLEAALGLERAHMGMFTELAILYSKFKPQKMREHLELFWSRVNIPKVLRAAEQAHLWAELVFLYDKYEEYDNAIITMMNHPTDAWKEGQFKDIITKVANVELYYRAIQFYLEFKPLLLNDLLMVLSPRLDHTRAVNYFSKVKQLPLVKPYLRSVQNHNNKSVNESLNNLFITEEDYQALRTSIDAYDNFDNISLAQRLEKHELIEFRRIAAYLFKGNNRWKQSVELCKKDSLYKDAMQYASESKDTELAEELLQWFLQEEKRECFGACLFTCYDLLRPDVVLETAWRHNIMDFAMPYFIQVMKEYLTKVDKLDASESLRKEEEQATETQPIVYGQPQLMLTAGPSVAVPPQAPFGYGYTAPAYGQPQPGFGYSM	soluble
MGSDKIHHHHHHMFRTFTEKRSEWKEQISEEIIPLIHRGMVNRKQWLLVNLKGRLWSGSLRDQFMFENIEWLRNYYKGEKLIVWAHNYHIRKNRSLLLELLRIKTVDHLLAKKYADRVFSVGFYAGSGTCLTPYKDLHEITMINQYHLELLLKELNGHTFFLPTNIGAKRNAWNKQAWWLLETRLLGMAPLVLKPIKAYDAIFFIKCVKPPQELGG	not soluble
MGSDKIHHHHHHMHYEHSRKGNHMIKINHLTITQNKDLRDLVSDLTMTIQDGEKVAIIGEEGNGKSTLLKILMGEALSDFTIKGNIQSDYQSLAYIPQKVPEDLKKKTLHDYFFLDSIDLDYSILYRLAEELHFDSNRFASDQEIGNLSGGEALKIQLIHELAKPFEILFLDEPSNDLDLETVDWLKGQIQKTRQTVIFISHDEDFLSETADTIVHLRLVKHRKEAETLVEHLDYDSYSEQRKANFAKQSQQAANNQRAYDKTMEKHRRVKQNVETALRATKDSTAGRLLAKKMKTVLSQEKRYEKAAQSMTQKPLEEEQIQLFFSDIQPLPASKVLVQLEKENLSIDDRVLVQKLQLTVRGQEKIGIIGPNGVGKSTLLAKLQRLLNDKREISLGFMPQDYHKKLQLDLSPIAYLSKTGEKEELQKIQSHLASLNFSYPEMQHQIRSLSGGQQGKLLLLDLVLRKPNFLLLDEPTRNFSPTSQPQIRKLFATYPGGLITVSHDRRFLKEVCSIIYRMTEHGLKLVNLEDL	not soluble
MTILAIDTSNYTLGIALLREDTVIAEYITYLKKNHSVRAMPAVHSLLNDCDMAPQDLSKIVVAKGPGSYTGVRIGVTLAKTLAWSLDIPISAVSSLETLAANGRHFDGLISPIFDARRGQVYTGLYQYKNGLLEQVVPDQNVMLADWLEMLKEKDRPVLFLGHDTSLHKQMIEDVLGTKGFIGTAAQHNPRPSELAFLGKEKEAADVHGLVPDYLRLAEAEAKWIESQKLEHHHHHH	not soluble
MIRLTRLDGDVFFVNPDLIEAIEETPDTHIVLSNGRRYLVIEKTDAIVARIISFKSSVMKRALGGHGRKYLRRKMEGSYLPRCPLKPGHNTDLEHHHHHH	soluble
